91 sequences from the supplement of paper PMC9112550, “Optimization of the antimicrobial peptide Bac7 by deep mutational scanning” (BMC Biology, 2022) can be followed below.

For the data set, the system named is Escherichia coli TOP10. Briefly: shrunken log2 fold change of peptide-encoding DNA abundance (4.5 h post-induction vs induction); higher = less antimicrobial activity (less host growth inhibition). The note with it: time post-induction: 4.5 h; library: site-saturation at positions 5, 18, 19, 20.
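Note: peptides expressed intracellularly from a pBAD plasmid library in pooled LB shake-flask culture, induced with 0.3% L-arabinose, DNA abundance read by NGS, three biological replicates, DESeq2 with apeglm shrinkage.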

For the sequence RRIRMRPPRLPRPRPRPVQTPRP, the “shrunken log2 fold change” value was 0.0257.
On to RRIRHRPPRLPRPRPRPPMQPRP, for which the “shrunken log2 fold change” value was 0.268.
Under RRIRSRPPRLPRPRPRPSQIPRP stands -0.0773.
As for RRIRTRPPRLPRPRPRPCGNPRP, the figure is -0.0693.
As for RRIRHRPPRLPRPRPRPSTCPRP, the figure is -0.0299; as for RRIRARPPRLPRPRPRPYNGPRP, -0.0341; as for RRIRARPPRLPRPRPRPNEPPRP, -0.115.
For RRIRQRPPRLPRPRPRPYGNPRP, the “shrunken log2 fold change” value is -0.0235.
Under RRIRNRPPRLPRPRPRPDKRPRP stands -0.0491; under RRIRFRPPRLPRPRPRPQWRPRP, 1.49; under RRIRRRPPRLPRPRPRPEQEPRP, 0.0308.
As for RRIRCRPPRLPRPRPRPKEWPRP, the figure is 0.0878.
As for RRIRGRPPRLPRPRPRPPRYPRP, the figure is 0.701; as for RRIRDRPPRLPRPRPRPMCHPRP, 0.216; as for RRIRWRPPRLPRPRPRPDAHPRP, 0.0254.
For RRIRFRPPRLPRPRPRPWEKPRP, the “shrunken log2 fold change” value was -0.0348.
As for RRIRYRPPRLPRPRPRPLWDPRP, the figure is -0.717; as for RRIRMRPPRLPRPRPRPTWSPRP, 0.66.
Take RRIRLRPPRLPRPRPRPHCRPRP: the “shrunken log2 fold change” value is -0.254.
Under RRIRARPPRLPRPRPRPFNYPRP stands -0.0393; under RRIRKRPPRLPRPRPRPFAHPRP, -0.00992; under RRIRQRPPRLPRPRPRPHWCPRP, 0.1.
Under RRIRKRPPRLPRPRPRPCHHPRP stands -0.411; under RRIRARPPRLPRPRPRPSDDPRP, 0.282.
As for RRIRFRPPRLPRPRPRPADMPRP, the figure is -0.155; as for RRIRNRPPRLPRPRPRPQFLPRP, 0.106.
Take RRIRDRPPRLPRPRPRPKCMPRP: the “shrunken log2 fold change” value was -0.153.
Take RRIRWRPPRLPRPRPRPLNYPRP: the “shrunken log2 fold change” value was -0.546.
Under RRIRPRPPRLPRPRPRPICCPRP stands -0.139; under RRIRLRPPRLPRPRPRPRSSPRP, -0.277; under RRIRSRPPRLPRPRPRPNLPPRP, 0.247.
As for RRIRERPPRLPRPRPRPDRQPRP, the “shrunken log2 fold change” value was -0.0719.
Under RRIRGRPPRLPRPRPRPYLMPRP stands -0.0538; under RRIRNRPPRLPRPRPRPWTAPRP, -0.0401.
Turning to RRIRNRPPRLPRPRPRPLYDPRP, the “shrunken log2 fold change” value was -0.0765.
Under RRIRNRPPRLPRPRPRPNAGPRP stands -0.0954.
As for RRIRNRPPRLPRPRPRPTPRPRP, the figure is 0.677; as for RRIRIRPPRLPRPRPRPHGRPRP, -0.0215; as for RRIRWRPPRLPRPRPRPPIKPRP, -0.0713.
As for RRIRDRPPRLPRPRPRPDVDPRP, the figure is 0.0482.
For the sequence RRIRLRPPRLPRPRPRPPVRPRP, the “shrunken log2 fold change” value is 0.426.
Under RRIRNRPPRLPRPRPRPMMFPRP stands -0.0478; under RRIRWRPPRLPRPRPRPPEFPRP, 0.094; under RRIRFRPPRLPRPRPRPITFPRP, -0.456.
As for RRIRDRPPRLPRPRPRPKDMPRP, the figure is 0.0342; as for RRIRCRPPRLPRPRPRPYHFPRP, -1.01; as for RRIRIRPPRLPRPRPRPGEIPRP, -0.123.
For the sequence RRIRHRPPRLPRPRPRPVGEPRP, the “shrunken log2 fold change” value is 0.053.
For RRIRRRPPRLPRPRPRPLHRPRP, the “shrunken log2 fold change” value was 0.202.
With RRIRHRPPRLPRPRPRPGSDPRP, the “shrunken log2 fold change” value is -0.014.
With RRIRERPPRLPRPRPRPFQAPRP, the “shrunken log2 fold change” value was -0.215.
As for RRIRRRPPRLPRPRPRPHINPRP, the figure is -0.432.
Under RRIRMRPPRLPRPRPRPQDRPRP stands 0.179.
As for RRIRGRPPRLPRPRPRPCYKPRP, the figure is -0.295.
In the case of RRIRQRPPRLPRPRPRPQISPRP, the “shrunken log2 fold change” value was -0.159.
As for RRIRCRPPRLPRPRPRPKMCPRP, the figure is -0.164; as for RRIRQRPPRLPRPRPRPRNCPRP, 5.
As for RRIRARPPRLPRPRPRPHCDPRP, the figure is 0.214; as for RRIRWRPPRLPRPRPRPHLRPRP, 0.039.
In the case of RRIRGRPPRLPRPRPRPEEHPRP, the “shrunken log2 fold change” value was determined as 0.131.
Consider RRIRGRPPRLPRPRPRPWEVPRP, for which the “shrunken log2 fold change” value was determined as 0.0273.
As for RRIRDRPPRLPRPRPRPNGMPRP, the figure is -0.0609; as for RRIRYRPPRLPRPRPRPHDRPRP, 0.0039; as for RRIRMRPPRLPRPRPRPTAGPRP, 0.396.
As for RRIRNRPPRLPRPRPRPKSRPRP, the figure is -0.0139.
For the sequence RRIRTRPPRLPRPRPRPAMAPRP, the “shrunken log2 fold change” value was determined as 0.392.
As for RRIRMRPPRLPRPRPRPSMPPRP, the figure is -0.201; as for RRIRQRPPRLPRPRPRPIHTPRP, 0.0773.
Under RRIRWRPPRLPRPRPRPDCYPRP stands 0.148; under RRIRHRPPRLPRPRPRPCFQPRP, -0.558; under RRIRVRPPRLPRPRPRPLWWPRP, 0.855.
Consider RRIRYRPPRLPRPRPRPNRYPRP, for which the “shrunken log2 fold change” value is -0.499.
In the case of RRIRMRPPRLPRPRPRPHIWPRP, the “shrunken log2 fold change” value is -0.0244.
As for RRIRQRPPRLPRPRPRPMIHPRP, the “shrunken log2 fold change” value is -0.471.
As for RRIRYRPPRLPRPRPRPKLCPRP, the figure is -0.0301; as for RRIRFRPPRLPRPRPRPWYPPRP, -0.321; as for RRIRIRPPRLPRPRPRPVMWPRP, -0.0605.
As for RRIRFRPPRLPRPRPRPNTTPRP, the figure is -0.0257; as for RRIRRRPPRLPRPRPRPHKLPRP, 0.022.
As for RRIRARPPRLPRPRPRPCMFPRP, the figure is 0.0445.
As for RRIRLRPPRLPRPRPRPDSRPRP, the “shrunken log2 fold change” value turned out to be 0.0292.
As for RRIRIRPPRLPRPRPRPVKHPRP, the figure is -0.107; as for RRIRYRPPRLPRPRPRPTGRPRP, 0.0692; as for RRIRARPPRLPRPRPRPATWPRP, 0.37.
Under RRIRERPPRLPRPRPRPSMSPRP stands -0.0748.
Take RRIRLRPPRLPRPRPRPMCDPRP: the “shrunken log2 fold change” value is -0.481.
In the case of RRIRCRPPRLPRPRPRPMNPPRP, the “shrunken log2 fold change” value was -0.24.
RRIRFRPPRLPRPRPRPQVGPRP: the “shrunken log2 fold change” value is -0.0394.
As for RRIRPRPPRLPRPRPRPYMIPRP, the “shrunken log2 fold change” value is -0.398.
As for RRIRKRPPRLPRPRPRPGANPRP, the figure is 0.179; as for RRIRWRPPRLPRPRPRPNVMPRP, -0.00962.
